Test [1] has as its target hemagglutinin (HA) of influenza A/Wisconsin/588/2019 (influenza A virus A/Wisconsin/588/2019). Briefly: cell-based or functional assay.
Test [2] has as its target hemagglutinin (HA) of influenza A/Brisbane/02/2018 H1N1 (influenza A virus A/Brisbane/02/2018 (H1N1)). The experiment in a line: cell-based or functional assay.
In test [3] the target is hemagglutinin (HA) of influenza B/Colorado/06/2017 B-Vic (influenza B virus B/Colorado/06/2017). The experiment in a line: cell-based or functional assay.
Test [4] concerns the target hemagglutinin (HA) of influenza B/Austria/1359417/2021 (influenza B virus B/Austria/1359417/2021). Briefly: cell-based or functional assay.
For test [5], the target named is hemagglutinin (HA) of influenza B/Phuket/3073/2013 B-Yam (influenza B virus B/Phuket/3073/2013). The experiment in a line: cell-based or functional assay.
Test [6] has as its target hemagglutinin (HA) of influenza A/Darwin/6/2021 (influenza A virus A/Darwin/6/2021). Briefly: cell-based or functional assay.
The target of test [7] is hemagglutinin (HA) of influenza A/Tasmania/503/2020 (H3N2) (influenza A virus A/Tasmania/503/2020 (H3N2)). The experiment in a line: cell-based or functional assay.
Test [8] has as its target hemagglutinin (HA) of influenza A/Singapore/INFIMH-16-0019/2016 H3N2 (influenza A virus A/Singapore/INFIMH-16-0019/2016 (H3N2)). The experiment in a line: cell-based or functional assay.
Test [9] addresses hemagglutinin (HA) of influenza A/Hawaii/70/2019 (influenza A virus A/Hawaii/70/2019). Briefly: cell-based or functional assay.
The target of test [10] is hemagglutinin (HA) of influenza B/Washington/02/2019 B-Vic (influenza B virus B/Washington/02/2019). Briefly: cell-based or functional assay.
For test [11], the target named is hemagglutinin (HA) of influenza A/Sydney/5/2021 (influenza A virus A/Sydney/5/2021). Briefly: cell-based or functional assay.
Test [12] concerns the target hemagglutinin (HA) of influenza A/Kansas/14/2017 H3N2 (influenza A virus A/Kansas/14/2017 (H3N2)). The experiment in a line: cell-based or functional assay.
Test [13] deals with hemagglutinin (HA) of influenza A/Victoria/2570/2019 H1N1 (influenza A virus A/Victoria/2570/2019 (H1N1)). The experiment in a line: cell-based or functional assay.
Test [14] has as its target hemagglutinin (HA) of influenza A/Hong Kong/45/2019 H3N2 (influenza A virus A/Hong Kong/45/2019 (H3N2)). The experiment in a line: cell-based or functional assay.
Test [15] concerns the target hemagglutinin (HA) of influenza A/Cambodia/e0826360/2020 H3N2 (influenza A virus A/Cambodia/e0826360/2020 (H3N2)). The experiment in a line: cell-based or functional assay.
Test [16] has as its target hemagglutinin (HA) of influenza A/Brisbane/02/2018 H1N1 (influenza A virus A/Brisbane/02/2018 (H1N1)). The experiment in a line: cell-based or functional assay. This is another data set of the same source.
The target of test [17] is hemagglutinin (HA) of influenza B/Colorado/06/2017 B-Vic (influenza B virus B/Colorado/06/2017). Briefly: cell-based or functional assay. This is another data set of the same source.
In test [18] the target is hemagglutinin (HA) of influenza B/Maryland/15/2016 B-Vic (influenza B virus B/Maryland/15/2016). The experiment in a line: cell-based or functional assay.
Test [19] concerns the target hemagglutinin (HA) of influenza A/Victoria/2570/2019 H1N1 (influenza A virus A/Victoria/2570/2019 (H1N1)). Briefly: cell-based or functional assay. The source holds these as a separate data set.
For test [20], the target named is hemagglutinin (HA) of influenza B/Phuket/3073/2013 B-Yam (influenza B virus B/Phuket/3073/2013). Briefly: cell-based or functional assay. This is another data set of the same source.
For test [21], the target named is hemagglutinin (HA) of influenza A/Singapore/INFIMH-16-0019/2016 H3N2 (influenza A virus A/Singapore/INFIMH-16-0019/2016 (H3N2)). Briefly: cell-based or functional assay. The source holds these as a separate data set.
Test [22] addresses hemagglutinin (HA) of influenza B/Washington/02/2019 B-Vic (influenza B virus B/Washington/02/2019). Briefly: cell-based or functional assay. The source holds these as a separate data set.
The target in test [23] is hemagglutinin (HA) of influenza A/Hong Kong/45/2019 H3N2 (influenza A virus A/Hong Kong/45/2019 (H3N2)). The experiment in a line: cell-based or functional assay. The source holds these as a separate data set.
Test [24] has as its target hemagglutinin (HA) of influenza A/Cambodia/e0826360/2020 H3N2 (influenza A virus A/Cambodia/e0826360/2020 (H3N2)). The experiment in a line: cell-based or functional assay. The source holds these as a separate data set.
Test [25] concerns the target hemagglutinin (HA) of influenza A/Kansas/14/2017 H3N2 (influenza A virus A/Kansas/14/2017 (H3N2)). Briefly: cell-based or functional assay. The source holds these as a separate data set.
Test [26] concerns the target hemagglutinin (HA) of influenza B/California/12/2015 B-Yam (influenza B virus B/California/12/2015). Briefly: cell-based or functional assay.
The subject of test [27] is influenza A/Anhui/1/2013 (H7N9) virus. Set-up: species or system BALB/c mice. Conditions: mouse, in vivo.

Where two headings read alike, the source gives them in different places.

As for SAB-176 Lot 4 (PD2102092QR) (antibody), the HAI titer came to 640 titer in test [1]; 1280 titer in test [2]; 160 titer in test [3]; 40 titer in [4]; 160 titer in [5]; 160 titer in test [6]. Besides, the HAI titer is 320 titer in test [7]; 640 titer in [8]; 905 titer in [9]; 160 titer in test [10]; 320 titer in test [11]; 320 titer in test [12]. Further, the HAI titer was found to be 256 titer in [14]; 512 titer in test [16]; 256 titer in test [17]; 256 titer in test [18]; 256 titer in test [19]; 128 titer in test [20]. In addition, the HAI titer in [21] is 512 titer; in test [22] it was 128 titer; in test [24], 256 titer; in test [25], 256 titer; in [26], 128 titer. For the same molecule, the HAI titer ratio of SAB-176 to hIVIG in test [13] was 16 to 32 X; in test [14], 16 to 32 X; in test [15] it was 32 X; in [16] it was 16 to 32 X; in test [17], 16 to 32 X; in test [18], 16 to 32 X. Moreover, the HAI titer ratio of SAB-176 to hIVIG in test [20] was 16 X; in test [21], 8 to 32 X; in test [22], 16 to 32 X; in test [24], 8 to 16 X; in [25], 8 to 64 X; in test [26], 16 to 32 X. The HAI titer of drug product in test [20] was determined as 3840 titer; in test [22] it was 960 titer; in test [23] it was 1920 titer.
`CCOC(=O)C1=C[C@@H](OC(CC)CC)[C@H](NC(C)=O)[C@@H](N)C1` [oseltamivir]: the “protection from challenge (body weight)” value in test [27] is on record as “did show protection from challenge”.

The record behind these values is patent US20240279315A1 (priority 2023, published 2024).
